Earlier results as cited in PMC8694941 (RSC Advances, 2021).

Conditions: commonly used comparator tracer

For [^68Ga]Ga-DOTA-c(RGDfK) (head to tail), the “partition coefficient (log D)” value is listed as “around −3.43”.
